# Measurements published in the supplement of paper PMC6757056.
# ± gives the standard deviation of the averaged measurements.
# B1: library; a variant is named by its letters at N, in order (parent)
# chain: GCUGUCACCGGUGUAUUACCCUAGUGGUCGACCGGUCUGAUGAGUCUNNNNNNAGACGAAACAGC
# Legend:
# hypoxanthine [1] = variants of: B1; test: FACS-Seq fitted mean relative fluorescence mCherry/BFP without ligand (log10 relative fluorescence); ligand: hypoxanthine (xanthine aptamer); higher = higher reporter protein expression; conditions: HEK293T, ligand present: no
# In short: (§1)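 An mCherry reporter containing the ribozyme switch and an EF1α-BFP marker were introduced by lentivirus into HEK293T libraries. Cells were enriched, incubated 48 h with or without ligand, sorted into 6 bins by mCherry/BFP, and bin genomic DNA was PCR-amplified, barcoded and sequenced on MiSeq. Fluorescence represents the normalized fitted normal mean of the bin counts. Fitting was done on log10(mCherry/BFP), scaling to five spiked-in control ribozymes.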
# hypoxanthine [2] = variants of: B1; test: normalized RNA/DNA level with ligand (relative to sTRSVctl = 100) (log10 (% of sTRSVctl)); ligand: hypoxanthine (xanthine aptamer); higher = less ribozyme self-cleavage, higher mRNA level; conditions: ligand concentration (+) RNA-Seq: 5 mM, HEK293T, reporter: mCherry (pCS4076), ligand present: yes
# In short: (§2)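 Only sequences with at least 100 DNA reads were analyzed, from HEK293T cells transfected with 4 µg per 6-well well of ribozyme switch library plasmids 72 h before RNA extraction with EDTA. Any ligand was added 1 h before transfection. RNA level was defined as RNA over DNA reads, normalized to a spiked-in non-cleaving sequence or to the top sequences, then scaled and log-transformed. The top set was 25 sequences, and the scaling was ×100 followed by log10.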
# hypoxanthine [3] = variants of: B1; test: normalized RNA/DNA level without ligand (relative to sTRSVctl = 100) (log10 (% of sTRSVctl)); ligand: hypoxanthine (xanthine aptamer); higher = less ribozyme self-cleavage, higher mRNA level; conditions: HEK293T, reporter: mCherry (pCS4076), ligand present: no
# In short: as §2
# hypoxanthine [4] = variants of: B1; test: FACS-Seq fitted mean relative fluorescence mCherry/BFP with ligand (log10 relative fluorescence); ligand: hypoxanthine (xanthine aptamer); ligand concentration (+) FACS-Seq: 5 mM; higher = higher reporter protein expression; conditions: HEK293T, ligand present: yes
# In short: as §1
Variant,FACS-Seq fitted mean (log10) (hypoxanthine [1]),normalized RNA/DNA level with ligand (log10) (hypoxanthine [2]),normalized RNA/DNA level without ligand (log10) (hypoxanthine [3]),FACS-Seq fitted mean (log10) (hypoxanthine [4])
ACUUAG,0.227 ± 0.048,1.81 ± 0.025,1.52 ± 0.061,0.503 ± 0.042
GCAUGG,0.196 ± 0.083,1.83 ± 0.052,1.33 ± 0.063,0.701 ± 0.049
AAAAAG,0.286 ± 0.03,1.841 ± 0.013,1.52 ± 0.036,0.588 ± 0.046
CUUGGA,0.708 ± 0.039,1.95 ± 0.032,1.85 ± 0.02,0.705 ± 0.086
AGAGCG,0.488 ± 0.026,1.81 ± 0.024,1.401 ± 0.002,0.431 ± 0.067
AAUUGG,0.22 ± 0.02,1.872 ± 0.014,1.405 ± 0.0046,0.658 ± 0.036
AUUUUG,0.224 ± 0.041,1.933 ± 0.0027,1.59 ± 0.083,0.466 ± 0.012
AGCUGA,0.203 ± 0.08,1.91 ± 0.043,1.74 ± 0.067,0.0306 ± 0.017
AGCUUG,0.486 ± 0.018,1.94 ± 0.036,1.59 ± 0.018,0.64 ± 0.031
AAACCC,0.474 ± 0.095,1.95 ± 0.022,1.833 ± 0.0068,0.431 ± 0.021
GCUUGA,0.378 ± 0.011,1.924 ± 0.018,1.817 ± 0.0041,0.53 ± 0.017
GCGUGU,0.0904 ± 0.007,1.84 ± 0.049,1.42 ± 0.039,0.45 ± 0.049
AACAGG,0.1 ± 0.034,1.76 ± 0.042,1.291 ± 0.0056,0.57 ± 0.031
GAGCUA,0.221 ± 0.077,1.925 ± 0.018,1.722 ± 0.004,0.293 ± 0.039
UUGUGG,0.447 ± 0.013,2.01 ± 0.025,1.89 ± 0.0069,0.511 ± 0.067
AAUACG,0.407 ± 0.1,1.844 ± 0.01,1.44 ± 0.067,0.609 ± 0.057
AAGGUA,0.0361 ± 0.0026,1.767 ± 0.012,1.62 ± 0.021,0.162 ± 0.035
AAGACA,0.332 ± 0.067,1.93 ± 0.067,1.675 ± 0.012,0.559 ± 0.0087

Variant,FACS-Seq fitted mean (log10) (hypoxanthine [1]),normalized RNA/DNA level with ligand (log10) (hypoxanthine [2]),normalized RNA/DNA level without ligand (log10) (hypoxanthine [3]),FACS-Seq fitted mean (log10) (hypoxanthine [4])
GAUGAU,0.537 ± 0.094,1.91 ± 0.05,1.767 ± 0.015,0.495 ± 0.025
GCACUG,0.25 ± 0.031,1.877 ± 0.012,1.45 ± 0.029,0.464 ± 0.011
CUGUUA,0.263 ± 0.085,1.95 ± 0.057,1.66 ± 0.027,0.493 ± 0.053
GUAACG,0.351 ± 0.015,1.93 ± 0.048,1.59 ± 0.022,0.537 ± 0.02
UCAUUU,0.631 ± 0.012,1.96 ± 0.052,1.91 ± 0.031,0.769 ± 0.024
GCUAAU,0.665 ± 0.11,1.93 ± 0.052,1.788 ± 0.012,0.7639 ± 0.0062
UGGCGA,0.345 ± 0.039,1.94 ± 0.031,1.65 ± 0.034,0.579 ± 0.11
CUAGAU,-0.176 ± 0.0088,1.96 ± 0.051,1.79 ± 0.056,0.0723 ± 0.049
UACUCA,0.0121 ± 0.031,1.95 ± 0.029,1.907 ± 0.0097,0.0228 ± 0.0046
CAAAUC,0.445 ± 0.1,1.95 ± 0.039,1.927 ± 0.0086,0.495 ± 0.037
GGAAUA,0.68 ± 0.044,1.9527 ± 0.00026,1.78 ± 0.028,0.588 ± 0.045
ACCAAC,0.0939 ± 0.026,1.93 ± 0.025,1.883 ± 0.0074,0.317 ± 0.049
AUAGAC,0.72 ± 0.12,1.88 ± 0.035,1.8 ± 0.018,0.755 ± 0.051
AGUCGA,0.423 ± 0.022,1.95 ± 0.035,1.61 ± 0.058,0.654 ± 0.0092
AAACUG,0.227 ± 0.039,1.822 ± 0.0094,1.43 ± 0.051,0.46 ± 0.021
GUGAGG,0.174 ± 0.029,1.7 ± 0.039,1.2 ± 0.026,0.598 ± 0.051
UAAGAC,0.419 ± 0.024,1.87 ± 0.05,1.82 ± 0.035,0.507 ± 0.024
